test: yeast display, Sf9 membrane polyspecificity reagent, FACS + sequencing; frameworks hold sequencing errors
Summary of the method: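 Nanobodies from a synthetic yeast display library (Saccharomyces cerevisiae BJ5465), induced 36–48 hours with galactose, were stained 1 hour at 4 °C with 10% biotinylated, detergent-solubilized Sf9 membrane reagent, enriched on streptavidin microbeads, then FACS-sorted. Anti-HA (expression) and streptavidin (reagent binding) fluorescence set low and high (top ~1%) gates. Polyreactivity labels come from the gate of origin. Genes were colony-PCR amplified, MiSeq 2 × 250 sequenced and filtered by CDR length.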

Sequence | polyreactivity (PSR sort gate)
QVQLVESAGGLVQAGGSLRLSCAASGFTFGDNAMGWYRQAPGKERELVAAITSSGSTNYADSVKGRFTISRDNAKNTVYLQMNSLKPEDTAVYYCNAEDSVDAPVYKDLGSEYDSWGQGTQVTVSS | low polyreactivity
QVQLVESAGGLVQAGGSLRLSCAASGGTFLQYAMGSYRQAPGKERELVATITLIGDSTYYADSVKGRFTISRDNAKNTVYLQMNSLIPEDTAVYYCADRPVTSYAYGSWGQGTQVTVSS | low polyreactivity
QVQLVESAGGLVQAGGSLRLSCAASGIIFDDNAKGWYRQAPGKERELVAAISGRGGSTYYADSVKGRFTISRDNAKNTVYLQMNSLKPEDTAVYYCAASTVRRGTAPYSGGGDYWGQGTQVTVSS | high polyreactivity
QVQLVESAGGLVQAGGSLRLSCAASGIIFEYYTRGWYRQAPGKERELVASITYDGDSTYYADSVKGRFTISRDNAKNTVYLQMNSLKPEDTAVYYCAADYYYVYSSFGHYYWGQGTQVTVSS | low polyreactivity
QVQLVESAGGLVQAGGSLRLSCAASGIIFPAYAMGWYRQAPGKERELVAGISGRGGSTYYADSVKGRFTISRDNAKNTVYLQMNSLKPEDTAVYYCAAYAGGPYKFDYWGQGTQVTVSS | high polyreactivity
QVQLVESAGGLVQAGGSLRLSCAASGITFTYYAMGWYRQAPGKERELVATISYGGGITYYADSVKGRFTISRDNAKNTVYLQMNSLKPEDTAVYYCNADGATVWSLEYWGQGTQVTVSS | low polyreactivity
QVQLVESAGGLVQAGGSLRLSCAASGLTFTTYAMGWYRQAPGKERELVAAISRRGSRTYYADSVKGRFTISRDNAKNTVYLQMNSLKPEDTAVYYCNALTGSFKTYSFDYWGQGTQVTVSS | high polyreactivity
QVQLVESAGGLVQAGGSLRLSCAASGNTFHSNALGWYRQAPGKERELVAAITPSDGDTYYADSVKGRFTISRDNAKNTVYLQMNSLKPEDTAVYYCAAEDDPGEYEYWGQGTQVTESS | low polyreactivity
QVQLVESAGGLVQAGGSLRLSCAASGRIFGINSLGWYRQAPGKERELDAAISSGGSTYYADSVKGRFTISRDNAKYTVYILMNSEKPVDSAVYYCASDYDSSVCHDRGFWRDYWGQGNQVTVSS | low polyreactivity
QVQLVESAGGLVQAGGSLRLSCAASGRIFGYNAMGWYRQAPGKERELVAVITYSGGSTYYADSVKGRFTISRDNAKNTVYLQMNSLKPEDTAVYYCAKATTWGYFRVWSTRYYYWGQGTQVTVSS | low polyreactivity
QVQLVESAGGLVQAGGSLRLSCAASGRIFPFYAMGWYRQAPGKERELVAAISWNGGSTFYADSVKGRFTISRDNAKNTVYLQMNSLKPEDTAVYYCNADCRPAYTYDYWGQGTQVTVSS | low polyreactivity
QVQLVESAGGLVQAGGSLRLSCAASGRIFQFYAMGWYRQAPGKERELVATITRGGSTYYADSVKGRFTISRDNAKNTVYLQMNSLKPEDTAVYYCAAGFAGKYYWGQGTQVTVSS | high polyreactivity
QVQLVESAGGLVQAGGSLRLSCAASGRIFSPYAMGWYRQAPGKERELVAAIDWDGGGTYYADSVKGRFTISRDNAKNTVYLQMNSLKPEDTAVYYCAAETDLANGTSPSDYWGQGTQVTVSS | low polyreactivity
QVQLVESAGGLVQAGGSLRLSCAASGRIYGQNAMGWYRQAPGKERELVAAITGSGGRTYYADSVKGRFTISRDNAKNTVYLQMNSLKPEESAVYYSAVRVTSYYRTMDYWGQGTQVTVSS | low polyreactivity
QVQLVESAGGLVQAGGSLRLSCAASGRTGVNAMGWYRQAPGKERGLVAAINTSVGRTYYADSVKGRFTISRDNAKNTVYLQMNSLKPEDTAVYYCNTDRLGAARYDYWGQGTQVTVSS | low polyreactivity
QVQLVESAGGLVQAGGSLRLSCAASGSIFGSNAMGWYRQAPGKERELVASITSSGGSTHYADSVKGRFTISRDNAKNTVYLQMNSLKPEDTAVSYCATRAYGYYRWLYDYWGQGTQVTGSS | low polyreactivity
QVQLVESAGGLVQAGGSLRLSCAASGSIINRYAMGWYRQAPGKERELVAAITQSGGRTYYADSVKGRFTISRDNAKNTVYLQMNRLKPDDTAGYYCNAFRWYLYDYWGQGTLVTVSS | high polyreactivity
QVQLVESAGGLVQAGGSLRLSCAASGSILVLNAMGWSRQAPGKERELVAAITSRGTRTYYADSVKGRFTISRDNAKNTVYLQLNSLNPEDTAVYYCAAKAGYRYGSLAYYKYDYWGQGTQVTLSS | high polyreactivity
QVQLVESAGGLVQAGGSLRLSCAASGSTFANYAMGWYRQAPGKERELVAGISWRGGRTYYADSVKGRFTISRDNAKNTVYLQMNSLKPEDTAVYYSAVVHQTFTGDYWGQGTQVTVSS | high polyreactivity
QVQLVESAGGLVQAGGSLRLSCAASGSTFFTYTMGWYRQAPGKERELVAAISSGGSTYYADSVKGRFTISRDNAKNTVYLQMNSLKPEDTAVYYLLRGQGTQVTVSS | low polyreactivity

Sequence | polyreactivity (PSR sort gate)
QVQLVESAGGLVQAGGSLRLSCAASGSTFVTYAMGWYRQAPGKERELVAAISSTGTGRTYYADSVKGRFTISRDNAKNTVYLQMNSLKPEDTAVYSCAADATSPLTWFDYWGQGTQVTVSS | low polyreactivity
QVQLVESAGGLVQAGGSLRLSCAASGSTFWIYTMGWYRQAPGKERELVAAITWSGGRTYYADSVKGRFTISRDNAKNTVYLQMNSLKPEDTAVYYCNADVYSYRPSTIQRYVLFDYWGQGTQVTVSS | low polyreactivity
QVQLVESAGGLVQAGGSLRLSCAASGSTLRAYAMGWYRQAPGKERELVAAISGSGDSTYYADSVKGRFTISRDNAKNTVYLQMNSLKPEDTAVYYCNKGLFSTGNIPYYLIVYLEYNYWGQGTQVTVSS | low polyreactivity
QVQLVESAGGLVQAGGSLRLSCAASGYIFQYYAMGWYRQAPGKERELVAAITSGGSTYYADSVKGRFTISRDNAKNTVYLQMNSLKPEDTAVYYCAAHLLHYRGDYWGQGTQVTVSS | high polyreactivity
QVQLVESAGGLVQAGGSLRLSCAASGYIFSYNAMGGYRQAPGKERELVAAITASGGGTYYADSVKGRFTISRDNAKNTVYLHMNSLKQEDTAVYYCAADLSWSRVVFGDYDYWGQGTQVTVSS | low polyreactivity
QVQLVESAGGLVQAGGSLRLSCAASGYTLYLNAMGWYRQAPGKERELVARISGGGSTNYADSVKGRFTISRDNAKNTVYLQMNSLKPEDTAVYYCAASIFAYGYRSFQLDYWGQGTQVTVSS | low polyreactivity
QVQLVESAGGLVQAGGSLRLSCAAYGRIFAYNAMGWYRQSPGKERELVAAITWSGDSTYYADSVKGRFTISRDNAKNTVYLQMNSLKPEDTAVYYCATDPLFITSTRWKYDYWGQGTQVTVSS | low polyreactivity
QVQLVESAGGLVQAGGSLRLSCADSGSTFSPYAMGWYIDAPGKERELVAAIRSGRTSYADSVKGRFTISRDNAKNTVYLQMNSLKPEDTAVYYCAKASRVGYYWGQGTQVTESS | high polyreactivity
QVQLVESAGGLVQAGGSLRLSCASSGSTLPYNAMGWYRQAPGKESELVAAISKSGGRTYYADSVKGRFTISRDNAKNSVYLQMNSLKPEDTAVYYCNAGPYLGGGGSSRYLWGQGTQVTVSS | high polyreactivity
QVQLVESAGGLVQAGGSLRLSCDASGRIIRGNAMGWYRQAPGKEREMVAAINRSGGSTYYADSVKGRFTISRDNAKNTVYLQMKSLKQEDTAVYYCIAYPASRKTGWSSGYYYWGQGTQVTVSS | high polyreactivity
QVQLVESAGGLVQAGGSLRLSCDASGSIFRYYDMGWYRQAPGKERELVAAITYYGGGTYYADSVKGRFTISRDNAKNTVYLQMNSLKAEDTAVYYCAVRRVGSIYMDRYRYVVADYVYWGQGTQVTVSS | low polyreactivity
QVQLVESAGGLVQAGGSLRLSCDASGSTIDEYDMGWYRQAPGKERELVAAISDRGSRTRYADSVKGRFTISRDNAKNTVYLQLNSLKPEDTAVDYCNADIYVNYWDFDYWGQGTQVTVSS | high polyreactivity
QVQLVESAGGLVQAGGSLRLSSAASGYNFCSYAMGWYRQAPGKEREFVATISASGGRTYYADSVKGRFTISRDNAKNTVYLQMNSMKPEDTAVYYCNADPGNHAYWYYVEFYYYTYDYWGQGTQVTVSS | low polyreactivity
QVQLVESAGGLVQAGGSLRLTCAASGRTFTFNTMGWYRQAPGKERELVAAIDGDGTTNYADSVKGRFTISRDNAKNTVYLQMNSLKPEDTAVYYCAADFLYSFWYEPTFDYWGQGTQVTVSS | low polyreactivity
QVQLVESAGGLVQAGGSLRVSCAASGSTFSRYTMGWYRQAPGKERELVAAIRWSSGRTYYADSVKGRFTISRDNAKNTVYLQMNSLKPEDTAVYYCAALFPRGQADYAYWGQGTPVTVSS | high polyreactivity
QVQLVESAGGLVQAGGSLSLSCAASGRTFGQYPMGWYRKAPGKERELVAAITRSAGSTYYADSVKGRFTISRDNAKNNVYLQMNSLKPEDTAVSYCAKRFYWSVDGYRTAKYYYWGQGTQVTVSS | high polyreactivity
QVQLVESAGGLVQAGGSLSLSCAASGYTYWYAMGWYRQAPGKERELVAAIDSGVTRTYYADSVKGRFTISRDNAKNTVYLQMNSLKPEDTAVYYCAAGLSTDYGYWGQGTQVTVSS | low polyreactivity
QVQLVESAGGLVQAGVILRLSCPASGSTIEYYAMGWYRQAPGKERELVATISIDGRTNYADSVKGRFTISRDNAKNTVYLQMNSLNPEDTAVYYCAARPYWRHRYDYCGQGTQVTVSS | low polyreactivity
QVQLVESAGGLVQEGGSLRLICAASARTIVIYSMGWYRQAPGKEREFVAAISRSGGSTYYADSVKGRFTISRDNQKNTVYLQMNSLQPVDTAVYYCNTRTPYWFKSDYWGQGTQVTVSS | low polyreactivity
QVQLVESAGGLVQEGGSLRLICAASGSIFGGYAMGWYRQAPGKERELVAAISWSSSTTYYADSVKGRFTISRDHAMNTVYLQLNSLKPEDTAVYDCATGIYPQTSDYDYWGQGTQVTVSS | low polyreactivity

From the nanobody polyreactivity screen of Harvey et al. (2022)
